From the RNAGym collection of RNA variant scans (doi:10.1093/nar/gkz1192)

B1: CPEB3 Ribozyme (parent)
chain: UAACAGGGGGCCACAGCAGAAGCGUUCACGUCGCAGCCCCUGUCAGAUUCUGGUGAAUCUGCGAAUUCUGCUGUAUAUCUC

Variants of: B1
Experiment: self-cleavage, relative activity (ratio to wild type); higher = more cleavage; in vitro, sequencing
Procedure, shortened: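 Relative activity compares each variant's cleaved/total read fraction with that of the unmutated ribozyme. To get these fractions, barcoded CPEB3 ribozyme libraries from rounds of error-prone PCR were transcribed with T7 RNA polymerase for 5 hours at 37°C and then given 15 min of DNase I treatment before EDTA was added. The RNAs were reverse transcribed with template switching and sequenced on Illumina, and DNA sequencing linked barcodes to variants. A minimum of 5 reads applied, and three batches were averaged.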

Going from UAAUAGGGUGCCACAGCAGAAGCGUUCACGUCGCAGCCCCUGUCAGAUUCUGGUGAAUCUGCGAAUUCUGCUGUAUAUCUC to UAAUAGGGGGCCACAGCAGAAGCGUUCACGUCGCAGCCCCUAUCAGAUUCUGGUGAAUCUGCGAAUUCUGCUGUAUAUCUC, the self-cleavage rises from 0.17 to 0.32.

Going from UAAUAGGGGGCCACAGCAGAAGCGUUCACGUCGCAGCCCCUGUCAGAUUCUGGUGAACCUGCGAAUUCUGCUGUAUAUCUC to UAACCGGGGGCCACAGCAGAUGCGUUCACGUCGCAGCCCCUGUCAGAUUCUGGUGAAUCUGCGAAUUCUGCUGUAUAUCUC, the self-cleavage falls from 1.06 to 0.36.

First: UAACCGGGGGCCACAGCAGAGGCGUUCACGUCGCAGCCCCUGUCAGAUUCUGGUGAAUCUGCGAAUUCUGCUGUAUAUCUC
Second: UAAUAGGGGGCCACAGCAGAAGCGCUCACGUCGCAGCCCCUGUCAGAUUCUGGUGAAUCUGCGAAUUCUGCUGUAUAUCUC
The self-cleavage of the first is higher: 0.69 for the first, 0.2 for the second.

Compared with UAAUAGGGGGCCACAGCAGAAGCGAUCACGUCGCAGCCCCUGUCAGAUUCUGGUGAAUCUGCGAAUUCUGCUGUAUAUCUC, UAAUAGGGGGCCACAGCAGAAGCGGUCACGUCGCAGCCCCUGUCAGAUUCUGGUGAAUCUGCGAAUUCUGCUGUAUAUCUC is higher in self-cleavage: 0.31 for the first, 0.45 for the second.

Compared with UAAUAGGGGGCCACAGCAGAAGCGUUCACGUCGCAGCCCCUGUCAGAUUCUGGUUAAUCUGCGAAUUCUGCUGUAUAUCUC, UAACCGGGGGCCACAGCGGAAGCGUUCACGUCGCAGCCCCUGUCAGAUUCUGGUGAAUCUGCGAAUUCUGCUGUAUAUCUC is lower in self-cleavage: 1.28 for the first, 0.53 for the second.

Compared with UAACCGGGGGCCACAGCAGAAGCGUUCACGUCGCAGCCCCUGUCAGAUUCUGGUGGAUCUGCGAAUUCUGCUGUAUAUCUC, UAAUAGGUGGCCACAGCAGAAGCGUUCACGUCGCAGCCCCUGUCAGAUUCUGGUGAAUCUGCGAAUUCUGCUGUAUAUCUC is lower in self-cleavage: 0.75 for the first, 0.38 for the second.

Going from UAACCGGGGGCCACAGCAGAAGCGUUCACGUCGCGGCCCCUGUCAGAUUCUGGUGAAUCUGCGAAUUCUGCUGUAUAUCUC to UAACCGGGGGCCACAGCAGAAGCGUUCACGUCGCUGCCCCUGUCAGAUUCUGGUGAAUCUGCGAAUUCUGCUGUAUAUCUC, the self-cleavage falls from 1.18 to 0.54.

First: UAAUAGGGGGCCACAGCAGAAGCGUUCACGUCACAGCCCCUGUCAGAUUCUGGUGAAUCUGCGAAUUCUGCUGUAUAUCUC
Second: UAACCGGGGGCCACAGAAGAAGCGUUCACGUCGCAGCCCCUGUCAGAUUCUGGUGAAUCUGCGAAUUCUGCUGUAUAUCUC
The self-cleavage of the first is higher: 0.37 for the first, 0.19 for the second.

Going from UAACCGGGGGCCACAGCAGAAGCGUUCACGUCGCAGCCCCUGUCUGAUUCUGGUGAAUCUGCGAAUUCUGCUGUAUAUCUC to UAACCGGGGGCCACAGCAGAAGCGUUCACGUCGCAGCCCCUGUCGGAUUCUGGUGAAUCUGCGAAUUCUGCUGUAUAUCUC, the self-cleavage rises from 0.59 to 0.7.

Compared with UAACCGGGGGCCACUGCAGAAGCGUUCACGUCGCAGCCCCUGUCAGAUUCUGGUGAAUCUGCGAAUUCUGCUGUAUAUCUC, UAACCGGGGGCCACGGCAGAAGCGUUCACGUCGCAGCCCCUGUCAGAUUCUGGUGAAUCUGCGAAUUCUGCUGUAUAUCUC is lower in self-cleavage: 0.99 for the first, 0.96 for the second.

Going from UAACCGGGGGCCACCGCAGAAGCGUUCACGUCGCAGCCCCUGUCAGAUUCUGGUGAAUCUGCGAAUUCUGCUGUAUAUCUC to UAAUAGGGGGCCACAGCAGAAGCGUACACGUCGCAGCCCCUGUCAGAUUCUGGUGAAUCUGCGAAUUCUGCUGUAUAUCUC, the self-cleavage rises from 0.81 to 1.13.

First: UAAUAGGGGGCCACAGCAGAAGCGUCCACGUCGCAGCCCCUGUCAGAUUCUGGUGAAUCUGCGAAUUCUGCUGUAUAUCUC
Second: UAACCGGGGGCCACAGCAGAAGCGUUCACGUCGCAGCCCCUGUCAGAUUCUGGUGACUCUGCGAAUUCUGCUGUAUAUCUC
The self-cleavage of the first is higher: 0.88 for the first, 0.52 for the second.

Going from UAACCGGGGGCCACAGCAGAAGCGUUCACGUCGCAGCCCCUGUCAGAUUCUGGUGAGUCUGCGAAUUCUGCUGUAUAUCUC to UAAUAGGGGUCCACAGCAGAAGCGUUCACGUCGCAGCCCCUGUCAGAUUCUGGUGAAUCUGCGAAUUCUGCUGUAUAUCUC, the self-cleavage falls from 0.9 to 0.25.

Going from UAAUAGGGGACCACAGCAGAAGCGUUCACGUCGCAGCCCCUGUCAGAUUCUGGUGAAUCUGCGAAUUCUGCUGUAUAUCUC to UAAUAGGGGGCCACAGCAGAAGCGUUCACGUCGCAGCCCCUGUCAGAUCCUGGUGAAUCUGCGAAUUCUGCUGUAUAUCUC, the self-cleavage rises from 0.63 to 0.69.

First: UAAUAGGGGGCCACAGCAGAAGCGUUCACGUCGCAGCCCCUGCCAGAUUCUGGUGAAUCUGCGAAUUCUGCUGUAUAUCUC
Second: UAACCGGGGGCCACAGCAGAAGCGUUCAUGUCGCAGCCCCUGUCAGAUUCUGGUGAAUCUGCGAAUUCUGCUGUAUAUCUC
The self-cleavage of the first is higher: 0.93 for the first, 0.42 for the second.

Going from UAACCGGGGGCCACAGCAGAAGCGUUCACGUCGCAGCCCCUGUCAGAUUCUGGUGAAUCUGCGAAUUCUGCUGUAUAUCUC to UAACCGGGGGCCUCAGCAGAAGCGUUCACGUCGCAGCCCCUGUCAGAUUCUGGUGAAUCUGCGAAUUCUGCUGUAUAUCUC, the self-cleavage rises from 0.98 to 1.22.

Compared with UAACCGGGGGCCGCAGCAGAAGCGUUCACGUCGCAGCCCCUGUCAGAUUCUGGUGAAUCUGCGAAUUCUGCUGUAUAUCUC, UAAUAGGGGGCCACAGCAGAAGCGUUCACGCCGCAGCCCCUGUCAGAUUCUGGUGAAUCUGCGAAUUCUGCUGUAUAUCUC is higher in self-cleavage: 1.07 for the first, 1.11 for the second.
